Our source for the Kd values is patent publication US20070135998A1.

In this assay the target is VLA1 I-domain protein (human) (UniProt P56199). The assay can be described thus: KinExA, solution phase affinity, scFv. (In general: Kinetic exclusion samples the free partner from a solution-phase mixture.)
Chain of UniProt P56199 (P56199 173-364 limits assumed): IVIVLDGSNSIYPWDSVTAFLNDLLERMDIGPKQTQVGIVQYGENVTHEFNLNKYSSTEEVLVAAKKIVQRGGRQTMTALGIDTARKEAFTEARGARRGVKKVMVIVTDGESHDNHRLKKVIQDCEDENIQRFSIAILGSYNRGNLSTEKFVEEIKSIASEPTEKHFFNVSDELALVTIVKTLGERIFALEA

What is called Kd is the equilibrium constant for the complex coming apart. A lower Kd goes with a tighter complex. For the substance “AQC2 single chain Fv mutant, heavy chain K64Q (scFv)”, the Kd turned out to be 12 nM.

“AQC2 single chain Fv mutant, heavy chain S35N (scFv)” yielded a Kd of 39 nM.

The substance “AQC2 single chain Fv mutant, heavy chain K64N (scFv)” showed a dissociation constant Kd of 4.1 nM.

The substance “AQC2 single chain Fv mutant, light chain N52R (scFv)” showed a Kd of 17 nM.

Substance “AQC2 single chain Fv mutant, heavy chain K64D (scFv)” returned a Kd of 6.3 nM.

Substance “AQC2 single chain Fv mutant, light chain H31R (scFv)” gave a Kd of 31 nM.

Consider “AQC2 single chain Fv mutant, heavy chain T50V (scFv)”, for which the Kd came out at 14 nM.

The substance “AQC2 single chain Fv mutant, heavy chain K64E (scFv)” yielded a Kd of 38 nM.

Take “AQC2 single chain Fv mutant, heavy chain Y32F (scFv)”: the Kd worked out at 34 nM.

The substance AQC2 single chain Fv (original) (scFv) gave a Kd of 25 nM.

Consider “AQC2 single chain Fv mutant, light chain N52K (scFv)”, for which the Kd turned out to be 49 nM.

On to “AQC2 single chain Fv mutant, heavy chain S35Q (scFv)”, for which the Kd was found to be 37 nM.

For the substance “AQC2 single chain Fv mutant, light chain N52H (scFv)”, the Kd came out at 43 nM.

Substance “AQC2 single chain Fv mutant, heavy chain D106N (scFv)” displayed a Kd of 67 nM.

Consider “AQC2 single chain Fv mutant, heavy chain L60D (scFv)”, for which the Kd was 21 nM.

As to “AQC2 single chain Fv mutant, heavy chain R31Q (scFv)”, the equilibrium dissociation constant (Kd) worked out at 8.2 nM.

With “AQC2 single chain Fv mutant, light chain N30V (scFv)”, the Kd was determined as 8.9 nM.
